Where a chain is given by its changes, count along the chain named. Numbers in names are those of the source.
Legend:
Type in all cases: binding
pig kidney FBPase K112A = biological target: T1, pig kidney FBPase K112A (Sus scrofa, UniProt P00636, K113A); assay: Differential scanning fluorimetry, K112A mutant; settings: no ligand
T1 construct: His6 (C); made in house; host or cells: Escherichia coli BL21 (DE3)
T1 sequence (P00636 1-338 K113A): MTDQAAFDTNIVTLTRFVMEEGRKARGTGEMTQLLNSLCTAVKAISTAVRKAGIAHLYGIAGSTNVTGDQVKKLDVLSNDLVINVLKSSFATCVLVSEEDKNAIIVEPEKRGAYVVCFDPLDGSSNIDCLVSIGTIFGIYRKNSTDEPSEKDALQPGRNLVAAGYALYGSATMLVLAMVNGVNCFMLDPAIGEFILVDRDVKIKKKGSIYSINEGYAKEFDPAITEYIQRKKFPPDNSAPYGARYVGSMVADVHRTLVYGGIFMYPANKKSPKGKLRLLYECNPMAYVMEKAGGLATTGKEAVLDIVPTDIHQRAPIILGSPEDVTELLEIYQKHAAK
Description: (§1) Differential scanning fluorimetry (DSF) assays were designed and implemented to run on WT and each mutant for the purpose of determining relative stabilities by melting point, and to detect structural changes in the enzymes upon ligand binding. Thermal shift assays were performed with a Light Cycler 96 System Real-Time PCR machine (Roche) using Sypro-Orange dye (Invitrogen) and thermal ramping (0.25°C per min between 20 and 85°C). […] Data were processed using the Boltzmann equation to generate sigmoidal denaturation curves, and average Tm/ΔTm values were calculated as previously described using GraphPad Prism software package.

pig kidney FBPase WT = biological target: T2, pig kidney FBPase WT (Sus scrofa, UniProt P00636); assay: Differential scanning fluorimetry, WT enzyme; settings: enzyme WT 5 µM, no ligand
T2 construct: His6 (C); made in house; host or cells: Escherichia coli BL21 (DE3)
T2 sequence (P00636 1-338): T1 sequence (P00636 1-338 K113A) with A113K
Description: as §1

pig kidney FBPase L73A = biological target: T3, pig kidney FBPase L73A (Sus scrofa, UniProt P00636, L74A); assay: Differential scanning fluorimetry, L73A mutant; settings: enzyme L73A 5 µM, no ligand
T3 construct: His6 (C); made in house; host or cells: Escherichia coli BL21 (DE3)
T3 sequence (P00636 1-338 L74A): T1 sequence (P00636 1-338 K113A) with L74A, A113K
Description: as §1

pig kidney FBPase L56A = biological target: T4, pig kidney FBPase L56A (Sus scrofa, UniProt P00636, L57A); assay: Differential scanning fluorimetry, L56A mutant; settings: enzyme L56A 5 µM, no ligand
T4 construct: His6 (C); made in house; host or cells: Escherichia coli BL21 (DE3)
T4 sequence (P00636 1-338 L57A): T1 sequence (P00636 1-338 K113A) with L57A, A113K
Description: as §1

pig kidney FBPase M177A = biological target: T5, pig kidney FBPase M177A (Sus scrofa, UniProt P00636, M178A); assay: Differential scanning fluorimetry, M177A mutant; settings: enzyme M177A 5 µM, no ligand
T5 construct: His6 (C); made in house; host or cells: Escherichia coli BL21 (DE3)
T5 sequence (P00636 1-338 M178A): T1 sequence (P00636 1-338 K113A) with A113K, M178A
Description: as §1

pig kidney FBPase Y113A = biological target: T6, pig kidney FBPase Y113A (Sus scrofa, UniProt P00636, Y114A); assay: Differential scanning fluorimetry, Y113A mutant; settings: no ligand
T6 construct: His6 (C); made in house; host or cells: Escherichia coli BL21 (DE3)
T6 sequence (P00636 1-338 Y114A): T1 sequence (P00636 1-338 K113A) with A113K, Y114A
Description: as §1

pig kidney FBPase M248D = biological target: T7, pig kidney FBPase M248D (Sus scrofa, UniProt P00636, M249D); assay: Differential scanning fluorimetry, M248D mutant; settings: enzyme M248D 5 µM, no ligand
T7 construct: His6 (C); made in house; host or cells: Escherichia coli BL21 (DE3)
T7 sequence (P00636 1-338 M249D): T1 sequence (P00636 1-338 K113A) with A113K, M249D
Description: as §1

pig kidney FBPase Y164A = biological target: T8, pig kidney FBPase Y164A (Sus scrofa, UniProt P00636, Y165A); assay: Differential scanning fluorimetry, Y164A mutant; settings: enzyme Y164A 5 µM, no ligand
T8 construct: His6 (C); made in house; host or cells: Escherichia coli BL21 (DE3)
T8 sequence (P00636 1-338 Y165A): T1 sequence (P00636 1-338 K113A) with A113K, Y165A
Description: as §1

B1: K112A: pig kidney FBPase mutant, lysine to alanine, AMP-binding site (protein, UniProt P00636 2-338, looked up, variant K112A)
Fructose-1,6-bisphosphatase 1: TDQAAFDTNIVTLTRFVMEEGRKARGTGEMTQLLNSLCTAVKAISTAVRKAGIAHLYGIAGSTNVTGDQVKKLDVLSNDLVINVLKSSFATCVLVSEEDKNAIIVEPEKRGAYVVCFDPLDGSSNIDCLVSIGTIFGIYRKNSTDEPSEKDALQPGRNLVAAGYALYGSATMLVLAMVNGVNCFMLDPAIGEFILVDRDVKIKKKGSIYSINEGYAKEFDPAITEYIQRKKFPPDNSAPYGARYVGSMVADVHRTLVYGGIFMYPANKKSPKGKLRLLYECNPMAYVMEKAGGLATTGKEAVLDIVPTDIHQRAPIILGSPEDVTELLEIYQKHAAK
**Q.** For B1, which “melting point, No Ligand” value (pig kidney FBPase K112A; enzyme K112A 5 µM) is on record?
**A.** 51.0 (± 2.50) °C

**Q.** What about the “decrease in melting temperature compared with WT” value (pig kidney FBPase K112A; enzyme K112A) of the same molecule?
**A.** approximately 6 °

B2: WT: recombinant wild-type pig kidney FBPase enzyme (protein, UniProt P00636 2-338, looked up)
Fructose-1,6-bisphosphatase 1: B1 Fructose-1,6-bisphosphatase 1 with A112K
**Q.** For B2, which “melting point, No Ligand” value (pig kidney FBPase WT) is on record?
**A.** 56.0 (± 2.75) °C

B3: L73A: pig kidney FBPase mutant Leu^73 to alanine, near PFE tetramer interface site (protein, UniProt P00636 2-338, looked up, variant L73A)
Fructose-1,6-bisphosphatase 1: B1 Fructose-1,6-bisphosphatase 1 with L73A, A112K
**Q.** With B3 as the molecule, how does the “melting point, No Ligand” value (pig kidney FBPase L73A) read?
**A.** 55.8 (± 2.50) °C

B4: L56A: pig kidney FBPase mutant Leu^56 to alanine, near PFE tetramer interface site (protein, UniProt P00636 2-338, looked up, variant L56A)
Fructose-1,6-bisphosphatase 1: B1 Fructose-1,6-bisphosphatase 1 with L56A, A112K
**Q.** Which “melting point, No Ligand” value (pig kidney FBPase L56A) does the source give for B4 here?
**A.** 56.0 (± 3.00) °C

B5: M177A: pig kidney FBPase mutant, methionine to alanine, interfacial (protein, UniProt P00636 2-338, looked up, variant M177A)
Fructose-1,6-bisphosphatase 1: B1 Fructose-1,6-bisphosphatase 1 with A112K, M177A
**Q.** With B5 as the molecule, how does the “melting point, No Ligand” value (pig kidney FBPase M177A) read?
**A.** 54.2 (± 1.75) °C

B6: Y113A: pig kidney FBPase mutant, tyrosine to alanine, AMP-binding site (protein, UniProt P00636 2-338, looked up, variant Y113A)
Fructose-1,6-bisphosphatase 1: B1 Fructose-1,6-bisphosphatase 1 with A112K, Y113A
**Q.** Which “melting point, No Ligand” value (pig kidney FBPase Y113A; enzyme Y113A 5 µM) does the source give for B6 here?
**A.** 50.0 (± 2.25) °C

**Q.** What about the “decrease in melting temperature compared with WT” value (pig kidney FBPase Y113A; enzyme Y113A) of the same molecule?
**A.** approximately 6 °

B7: M248D: pig kidney FBPase active site mutant Met^248 to aspartic acid (protein, UniProt P00636 2-338, looked up, variant M248D)
Fructose-1,6-bisphosphatase 1: B1 Fructose-1,6-bisphosphatase 1 with A112K, M248D
**Q.** For B7, which “melting point, No Ligand” value (pig kidney FBPase M248D) is on record?
**A.** 62.0 (± 1.25) °C

B8: Y164A: pig kidney FBPase mutant, tyrosine to alanine, interfacial (protein, UniProt P00636 2-338, looked up, variant Y164A)
Fructose-1,6-bisphosphatase 1: B1 Fructose-1,6-bisphosphatase 1 with A112K, Y164A
**Q.** For B8, which “melting point, No Ligand” value (pig kidney FBPase Y164A) is on record?
**A.** 55.4 (± 2.25) °C
